Assay results as given in patent publication US20110263454A1, “Methods of Identifying Functional Characteristics of Promoters, Transcription Modifying Proteins and Transcription Modulating Agents” (Salk Institute for Biological Studies, priority 2008, published 2011).

B1: TR2: Testicular Orphan Nuclear Receptor 2 (NR2C1), cDNA driver (protein, UniProt P13056 1-603, looked up)
Nuclear receptor subfamily 2 …: MATIEEIAHQIIEQQMGEIVTEQQTGQKIQIVTALDHNTQGKQFILTNHDGSTPSKVILARQDSTPGKVFLTTPDAAGVNQLFFTTPDLSAQHLQLLTDNSPDQGPNKVFDLCVVCGDKASGRHYGAVTCEGCKGFFKRSIRKNLVYSCRGSKDCIINKHHRNRCQYCRLQRCIAFGMKQDSVQCERKPIEVSREKSSNCAASTEKIYIRKDLRSPLTATPTFVTDSESTRSTGLLDSGMFMNIHPSGVKTESAVLMTSDKAESCQGDLSTLANVVTSLANLGKTKDLSQNSNEMSMIESLSNDDTSLCEFQEMQTNGDVSRAFDTLAKALNPGESTACQSSVAGMEGSVHLITGDSSINYTEKEGPLLSDSHVAFRLTMPSPMPEYLNVHYIGESASRLLFLSMHWALSIPSFQALGQENSISLVKAYWNELFTLGLAQCWQVMNVATILATFVNCLHNSLQQDKMSTERRKLLMEHIFKLQEFCNSMVKLCIDGYEYAYLKAIVLFSPDHPSLENMEQIEKFQEKAYVEFQDYITKTYPDDTYRLSRLLLRLPALRLMNATITEELFFKGLIGNIRIDSVIPHILKMEPADYNSQIIGHSI
B2: Erb: Estrogen Receptor β (NR3A2, ERb), cDNA driver (protein, UniProt Q92731 1-530, looked up)
Estrogen receptor beta: MDIKNSPSSLNSPSSYNCSQSILPLEHGSIYIPSSYVDSHHEYPAMTFYSPAVMNYSIPSNVTNLEGGPGRQTTSPNVLWPTPGHLSPLVVHRQLSHLYAEPQKSPWCEARSLEHTLPVNRETLKRKVSGNRCASPVTGPGSKRDAHFCAVCSDYASGYHYGVWSCEGCKAFFKRSIQGHNDYICPATNQCTIDKNRRKSCQACRLRKCYEVGMVKCGSRRERCGYRLVRRQRSADEQLHCAGKAKRSGGHAPRVRELLLDALSPEQLVLTLLEAEPPHVLISRPSAPFTEASMMMSLTKLADKELVHMISWAKKIPGFVELSLFDQVRLLESCWMEVLMMGLMWRSIDHPGKLIFAPDLVLDRDEGKCVEGILEIFDMLLATTSRFRELKLQHKEYLCVKAMILLNSSMYPLVTATQDADSSRKLAHLLNAVTDALVWVIAKSGISSQQQSMRLANLLMLLSHVRHASNKGMEHLLNMKCKNVVPVYDLLLEMLNAHVLRGCKSSITGSECSPAEDSKSKEGSQNPQSQ
B3: HNF4g: Hepatocyte Nuclear Factor γ (NR2A2), cDNA driver (protein, UniProt Q14541 1-408, looked up)
Hepatocyte nuclear factor …: MNTTDNGVNCLCAICGDRATGKHYGASSCDGCKGFFRRSIRKSHVYSCRFSRQCVVDKDKRNQCRYCRLRKCFRAGMKKEAVQNERDRISTRRSTFDGSNIPSINTLAQAEVRSRQISVSSPGSSTDINVKKIASIGDVCESMKQQLLVLVEWAKYIPAFCELPLDDQVALLRAHAGEHLLLGATKRSMMYKDILLLGNNYVIHRNSCEVEISRVANRVLDELVRPFQEIQIDDNEYACLKAIVFFDPDAKGLSDPVKIKNMRFQVQIGLEDYINDRQYDSRGRFGELLLLLPTLQSITWQMIEQIQFVKLFGMVKIDNLLQEMLLGGASNDGSHLHHPMHPHLSQDPLTGQTILLGPMSTLVHADQISTPETPLPSPPQGSGQEQYKIAANQASVISHQHLSKQKQL
B4: TR4: Testicular Orphan Nuclear Receptor 4 (NR2C2), cDNA driver (protein, UniProt P49116 1-596, looked up)
Nuclear receptor subfamily 2 …: MTSPSPRIQIISTDSAVASPQRIQIVTDQQTGQKIQIVTAVDASGSPKQQFILTSPDGAGTGKVILASPETSSAKQLIFTTSDNLVPGRIQIVTDSASVERLLGKTDVQRPQVVEYCVVCGDKASGRHYGAVSCEGCKGFFKRSVRKNLTYSCRSNQDCIINKHHRNRCQFCRLKKCLEMGMKMESVQSERKPFDVQREKPSNCAASTEKIYIRKDLRSPLIATPTFVADKDGARQTGLLDPGMLVNIQQPLIREDGTVLLATDSKAETSQGALGTLANVVTSLANLSESLNNGDTSEIQPEDQSASEITRAFDTLAKALNTTDSSSSPSLADGIDTSGGGSIHVISRDQSTPIIEVEGPLLSDTHVTFKLTMPSPMPEYLNVHYICESASRLLFLSMHWARSIPAFQALGQDCNTSLVRACWNELFTLGLAQCAQVMSLSTILAAIVNHLQNSIQEDKLSGDRIKQVMEHIWKLQEFCNSMAKLDIDGYEYAYLKAIVLFSPDHPGLTSTSQIEKFQEKAQMELQDYVQKTYSEDTYRLARILVRLPALRLMSSNITEELFFTGLIGNVSIDSIIPYILKMETAEYNGQITGASL
B5: RORb: RAR-related Orphan Receptor β (NR1F2), cDNA driver (protein, UniProt Q92753 1-470, looked up)
Nuclear receptor ROR-beta: MCENQLKTKADATAQIEVIPCKICGDKSSGIHYGVITCEGCKGFFRRSQQNNASYSCPRQRNCLIDRTNRNRCQHCRLQKCLALGMSRDAVKFGRMSKKQRDSLYAEVQKHQQRLQEQRQQQSGEAEALARVYSSSISNGLSNLNNETSGTYANGHVIDLPKSEGYYNVDSGQPSPDQSGLDMTGIKQIKQEPIYDLTSVPNLFTYSSFNNGQLAPGITMTEIDRIAQNIIKSHLETCQYTMEELHQLAWQTHTYEEIKAYQSKSREALWQQCAIQITHAIQYVVEFAKRITGFMELCQNDQILLLKSGCLEVVLVRMCRAFNPLNNTVLFEGKYGGMQMFKALGSDDLVNEAFDFAKNLCSLQLTEEEIALFSSAVLISPDRAWLIEPRKVQKLQEKIYFALQHVIQKNHLDDETLAKLIAKIPTITAVCNLHGEKLQVFKQSHPEIVNTLFPPLYKELFNPDCATGCK

How the values were obtained:
hMDR1 promoter = assay: NHR-promoter luciferase screen, hMDR1 promoter; format: cell-based, human; conditions: for Luc. act., normalized to lacZ / Normalized Luc. act., normalized to control: MDR1 promoter, HR/ligand component; for hMDR1 promoter reporter activity: transcription factor +/- ligand, control = 1.00
How it was run: (§1)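 CV-1 cells were co-transfected with 50 ng NHR (homodimer or NHR/RXR heterodimer), 100 ng promoter-luciferase construct and 50 ng LacZ. Luciferase was normalized to LacZ and to a no-NHR/no-ligand control.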

mPOMC promoter = assay: NHR-promoter luciferase screen, mPOMC promoter; format: cell-based, mouse; conditions: for Results of assays of transcription factor (+/- ligand) with mPOMC: Table 6d, luciferase activity relative to control (control = 1.00); for Luc. act., normalized to lacZ / Normalized Luc. act., normalized to control: mPOMC promoter, HR component with or without ligand; for Normalized Luc. act., normalized to control: relative to control
How it was run: as §1

RevErba promoter = assay: NHR-promoter luciferase screen, RevErba (RVRa) promoter; format: cell-based; set-up: key to mRevErba promoter reporter activity / Normalized Luc. act., normalized to control: luciferase activity normalized to lacZ and to control (no NHR/ligand); conditions: for Luc. act., normalized to lacZ / Normalized Luc. act., normalized to control / normalized Luc. act. on a logarithmic scale (column without head, Table 33) / negative reciprocal of normalized Luc. act. (fold repression; Table 33): RVRa promoter; for Luc. act., normalized to lacZ / Normalized Luc. act., normalized to control: HR component without or with ligand; for normalized Luc. act. on a logarithmic scale (column without head, Table 33): log10 of activity normalized to control; for mRevErba promoter reporter activity: transcription factor +/- ligand, control = 1.00; for negative reciprocal of normalized Luc. act. (fold repression; Table 33): given only where activity is below control
How it was run: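 Reporter readout: RevErbα promoter-driven luciferase, corrected for LacZ transfection efficiency and expressed relative to a no-receptor or no-ligand control. Receptors (V5H6-tagged, pcDNA3.1), alone or with RXR, plus any ligand, were expressed in CV-1 cells.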

mLeptin promoter = assay: NHR-promoter luciferase screen, mLeptin promoter; format: cell-based, mouse; conditions: for Luc. act., normalized to lacZ / Normalized Luc. act., normalized to control: Table 7, mLeptin; for Results of assays of transcription factor (+/- ligand) with mLeptin: Table 6d, luciferase activity relative to control (control = 1.00)
How it was run: as §1

Bmal1 promoter = assay: NHR-promoter luciferase screen, Bmal1 promoter; format: cell-based, mouse; conditions: for Luc. act., normalized to lacZ / Normalized Luc. act., normalized to control: Bmal1 promoter, HR component without or with ligand; for mBmal1 promoter reporter activity: transcription factor +/- ligand, control = 1.00
How it was run: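 Luciferase activity was measured 48 h after transfection, normalized to LacZ and then to a control lacking NHR or ligand. CV-1 cells carried 100 ng Bmal1 reporter, 50 ng NHR construct and 50 ng LacZ.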

Molecule	Luc. act., normalized to lacZ (hMDR1 promoter)	Normalized Luc. act., normalized to control (hMDR1 promoter)	hMDR1 promoter reporter activity (hMDR1 promoter)	Results of assays of transcription factor (+/- ligand) with mPOMC (mPOMC promoter)	Luc. act., normalized to lacZ (mPOMC promoter)	Normalized Luc. act., normalized to control (mPOMC promoter)	Luc. act., normalized to lacZ (RevErba promoter)	Normalized Luc. act., normalized to control (RevErba promoter)	normalized Luc. act. on a logarithmic scale (column without head, Table 33) (RevErba promoter)	mRevErba promoter reporter activity (RevErba promoter)	Luc. act., normalized to lacZ (mLeptin promoter)	Normalized Luc. act., normalized to control (mLeptin promoter)	Results of assays of transcription factor (+/- ligand) with mLeptin (mLeptin promoter)	Luc. act., normalized to lacZ (Bmal1 promoter)	Normalized Luc. act., normalized to control (Bmal1 promoter)	mBmal1 promoter reporter activity (Bmal1 promoter)	negative reciprocal of normalized Luc. act. (fold repression; Table 33) (RevErba promoter)	luciferase/LacZ, mLeptin (selected results) (mLeptin promoter; mLeptin promoter-luciferase, NHR +/- ligand, control = 1.0)
B1	0.3	1.0	1.01	1.92	132.1	1.9	52.3	1.9	0.27	1.87	3.4	1.1	1.15	10.8	0.7	0.69		
B2	0.3	1.1	1.06	1.00	69.1	1.0	20.0	0.7	−0.15	0.72	2.5	0.9	0.86	17.0	1.1	1.09	−1.397	
B3	0.2	0.8	0.75	1.07	73.9	1.1	28.15	1.0	0.00	1.01	2.4	0.8	0.82	11.5	0.7	0.73		
B4	0.5	1.6	1.57	3.75	258.7	3.8	26.5	0.9	−0.02	0.95	7.5	2.6	2.56	22.5	1.4	1.44	−1.054	2.6
B5	0.2	0.6	0.58	1.29	88.7	1.3	29.93	1.1	0.03	1.07	3.3	1.1	1.12	16.5	1.1	1.06		
